According to patent US20180155427A1 (Novartis, published 2018):

Assays:
[1] = target: T1, human PD-1 expressed on cells (human, UniProt Q15116 25-288); assay: FACS competition binding on PD-1 expressing Jurkat cells; competitor: fluorescently labeled murine mAb BAP049; MFI of bound labeled mAb
T1 construct: whole, on cells; Treated as one molecule; also called PD-1 expressing Jurkat cells; human PD-1 transfected Jurkat cells
Protocol: The concentration of the murine mAb was determined by OD280 measurement, whereas the chimeric mAb concentrations in supernatants were determined with an ELISA using an IgG4 standard.

[2] = target: T1, human PD-1 expressed on cells; assay: competition binding assay on human PD-1-expressing 300.19 cells, competitor PD-L2; competitor PD-L2
[3] = target: human PD-1-Ig fusion protein (human, UniProt Q15116 25-167); assay: ELISA
Chain of human PD-1-Ig fusion protein (Q15116 25-167): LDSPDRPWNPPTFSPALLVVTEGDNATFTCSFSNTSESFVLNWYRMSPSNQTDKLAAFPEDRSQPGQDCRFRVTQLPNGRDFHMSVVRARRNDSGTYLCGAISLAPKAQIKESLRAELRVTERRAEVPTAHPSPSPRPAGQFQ

[4] = target: T1, human PD-1 expressed on cells; assay: FACS blocking assay on PD-1-expressing 300.19 cells; blocked ligand at constant concentration: PD-L1-huIgG1 Fc fusion protein (legend paragraph 211 names 'PD-L1-Ig and PD-L2-Ig' for FIG. 8A); bound ligand detected with PE anti-human IgG F(ab')2
Protocol: Incubation was at 4° C. for 30 min. Bound ligand fusion proteins were detected with PE-conjugated F(ab′)2 fragment of goat anti-human IgG which doesn't recognize IgG4 mAbs (Southern Biotech 2043-09), and flow cytometry.

[5] = target: T2, cynomolgus PD-1 expressed on cells (cynomolgus, UniProt B0LAJ3 25-288); assay: FACS on cells transfected with cynomolgus PD-1
T2 construct: also called cynomolgus T cells; cells transfected with cynomolgus PD-1
T2 sequence (B0LAJ3 entry or part of it limits assumed): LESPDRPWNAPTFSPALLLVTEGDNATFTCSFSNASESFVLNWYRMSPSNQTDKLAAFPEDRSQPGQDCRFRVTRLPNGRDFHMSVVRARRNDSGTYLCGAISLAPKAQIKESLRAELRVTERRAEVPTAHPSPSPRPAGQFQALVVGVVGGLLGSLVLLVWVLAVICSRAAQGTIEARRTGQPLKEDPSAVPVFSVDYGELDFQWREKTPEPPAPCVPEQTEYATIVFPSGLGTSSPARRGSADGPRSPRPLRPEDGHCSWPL

[6] = target: T1, human PD-1 expressed on cells; assay: competition binding assay on human PD-1-expressing 300.19 cells, competitor PD-L1; competitor PD-L1
[7] = target: T1, human PD-1 expressed on cells; assay: FACS on human PD-1 transfected Jurkat cells
[8] = target: T2, cynomolgus PD-1 expressed on cells; assay: FACS on cynomolgus T cells

T1 sequence (Q15116 25-288): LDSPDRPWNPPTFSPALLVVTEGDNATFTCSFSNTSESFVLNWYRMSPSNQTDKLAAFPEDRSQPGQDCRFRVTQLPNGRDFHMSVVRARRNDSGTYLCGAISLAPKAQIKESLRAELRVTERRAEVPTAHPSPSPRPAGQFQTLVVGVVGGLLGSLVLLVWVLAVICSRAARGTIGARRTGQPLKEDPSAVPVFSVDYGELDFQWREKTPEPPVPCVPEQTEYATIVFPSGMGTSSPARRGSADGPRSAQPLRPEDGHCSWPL

| Binder | binding result [1] | IC50 [2] | Kd [3] | IC50 (read off the curve) [4] | Kd [5] | IC50 [6] | Kd [7] | Kd [8] |
| --- | --- | --- | --- | --- | --- | --- | --- | --- |
| chimeric antibody BAP049-chi (Ser) (antibody, human IgG4 S228P, kappa, V domains shown, also called Chi mAb (Ser)) VH: QVQLQQSGSELVRPGASVKLSCKASGYTFTTYWMHWVRQRPGQGLEWIGNIYPGTGGSNFDEKFKNRTSLTVDTSSTTAYMHLASLTSEDSAVYYCTRWTTGTGAYWGQGTTVTVSS VL: DIVMTQSPSSLTVTAGEKVTMSCKSSQSLLDSGNQKNFLTWYQQKPGQPPKLLIFWASTRESGVPDRFTGSGSVTDFTLTISSVQAEDLAVYYCQNDYSYPSTFGQGTKVEIKR | binds |  |  |  |  |  |  |  |
| murine anti-PD-1 monoclonal antibody BAP049 (antibody, V domains shown, the murine constant regions are not; also called murine mAb BAP049; Mu mAb) VH: QVQLQQSGSELVRPGASVKLSCKASGYTFTTYWMHWVRQRPGQGLEWIGNIYPGTGGSNFDEKFKNRTSLTVDTSSTTAYMHLASLTSEDSAVYYCTRWTTGTGAYWGQGTLVTVSA VL: DIVMTQSPSSLTVTAGEKVTMSCKSSQSLLDSGNQKNFLTWYQQKPGQPPKLLIFWASTRESGVPDRFTGSGSVTDFTLTISSVQAEDLAVYYCQNDYSYPCTFGGGTKLEIK |  | 0.9 nM | 0.04 nM | ~0.6 µg/mL | 0.6 nM | 0.3 nM | 0.06 nM | 0.4 nM |
